Tests used:
[1] = biological target: …-HLA-A*02:01 single-chain trimer displayed on yeast (human); test: flow cytometry of yeast displaying [..]-HLA-A*02:01, 400 nM DMF5 TCR tetramerized on SA-647 against anti-HA; the panel with SA-647 alone gives 10.80 in the same quadrant
[2] = biological target: …-HLA-A*02:01 single-chain trimer displayed on yeast (human); test: flow cytometry histogram of yeast displaying … with HLA-A*02:01, '+' (MA2.1 then secondary antibody); the row '-' gives 5.574 in the same gate
[3] = biological target: …-HLA-A*02:01 single-chain trimer displayed on yeast (human); test: flow cytometry histogram of yeast displaying … with HLA-A*02:01, '+' (MA2.1 then secondary antibody); the row '-' gives 6.825 in the same gate
[4] = biological target: …-HLA-A*02:01 single-chain trimer displayed on yeast (human); test: flow cytometry histogram of yeast displaying … with HLA-A*02:01, '+' (MA2.1 then secondary antibody); the row '-' gives 6.578 in the same gate
[5] = biological target: …-HLA-A*02:01 single-chain trimer displayed on yeast (human); test: flow cytometry histogram of yeast displaying … with HLA-A*02:01, '+' (MA2.1 then secondary antibody); the row '-' gives 7.270 in the same gate
[6] = biological target: …-HLA-A*02:01 single-chain trimer displayed on yeast (human); test: flow cytometry histogram of yeast displaying … with HLA-A*02:01, '+' (MA2.1 then secondary antibody); the row '-' gives 6.542 in the same gate
[7] = biological target: …-HLA-A*02:01 single-chain trimer displayed on yeast (human); test: flow cytometry histogram of yeast displaying … with HLA-A*02:01, '+' (MA2.1 then secondary antibody); the row '-' gives 9.655 in the same gate

| Substance | percent of yeast SA-647+ HA-488+ (upper right quadrant) [1] | percent of yeast in the MA2.1-positive gate [2] | percent of yeast in the MA2.1-positive gate [3] | percent of yeast in the MA2.1-positive gate [4] | percent of yeast in the MA2.1-positive gate [5] | percent of yeast in the MA2.1-positive gate [6] | percent of yeast in the MA2.1-positive gate [7] |
| --- | --- | --- | --- | --- | --- | --- | --- |
| DMF5 TCR, soluble, multimerized on streptavidin | 55.8 |  |  |  |  |  |  |
| MA2.1 antibody |  | 69 | 74.2 | 74.2 | 68.6 | 55.5 | 73.7 |
